These results are taken from patent US20040091907A1 (SUGEN, published 2004).

One test addresses T1, GFP-GEF-H1 (human, UniProt Q92974 93-986).
T1 construct: The legend says GFP-GEF-H1, the text GEF-H1S; also called GEF-H1S; EGFP-GEF-H1S; not shown: EGFP from vector pEGFP-C1 (Clontech)
T1 sequence: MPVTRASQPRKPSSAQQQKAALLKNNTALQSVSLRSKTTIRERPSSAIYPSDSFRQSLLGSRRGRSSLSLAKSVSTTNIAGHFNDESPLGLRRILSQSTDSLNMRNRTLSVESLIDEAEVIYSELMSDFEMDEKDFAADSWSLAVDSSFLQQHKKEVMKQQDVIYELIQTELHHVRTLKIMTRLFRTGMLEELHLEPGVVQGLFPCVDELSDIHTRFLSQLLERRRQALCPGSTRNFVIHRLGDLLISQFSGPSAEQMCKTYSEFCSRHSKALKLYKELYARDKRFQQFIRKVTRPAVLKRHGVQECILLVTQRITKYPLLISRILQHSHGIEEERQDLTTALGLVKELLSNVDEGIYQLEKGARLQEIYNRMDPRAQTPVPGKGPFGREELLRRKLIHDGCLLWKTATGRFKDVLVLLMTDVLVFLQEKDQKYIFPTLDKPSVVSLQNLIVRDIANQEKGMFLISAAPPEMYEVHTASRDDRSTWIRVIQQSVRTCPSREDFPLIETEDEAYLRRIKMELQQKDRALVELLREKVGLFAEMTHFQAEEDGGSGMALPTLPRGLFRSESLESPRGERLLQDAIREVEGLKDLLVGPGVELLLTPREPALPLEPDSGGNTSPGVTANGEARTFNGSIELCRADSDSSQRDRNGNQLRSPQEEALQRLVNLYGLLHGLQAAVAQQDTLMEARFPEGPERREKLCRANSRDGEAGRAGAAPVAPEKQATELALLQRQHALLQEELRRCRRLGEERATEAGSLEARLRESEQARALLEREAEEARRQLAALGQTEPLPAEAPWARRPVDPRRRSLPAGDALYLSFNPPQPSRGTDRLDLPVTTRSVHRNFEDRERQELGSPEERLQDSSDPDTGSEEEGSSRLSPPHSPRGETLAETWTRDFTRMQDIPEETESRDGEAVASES
Description: biotinylated peptide on streptavidin beads, pull-down from 293T lysate, GEF-H1 immunoblot. As to the method: FIG. 1: Direct binding of GEF-H1 to PAK4. […] An equivalent amount of beads and excess lysates (500 ug) were used. Eluates of beads and total lysates were analysed by SDS-PAGE and immunoblotted with myc or GEF-H1 antiserum; (c) represents a PAK4 gene schematic outlining the regions of PAK4 used to identify the GEF-H1 interaction domain (GID). d, alignment of the GID defined by the minimal binding region of PAK4 with PAK5 and PAK6.
Biotinylated peptides derived from the N-terminal region of PAK4 sequence were used to further map the GEF-H1 binding site. […] Based on the homology within the GID of PAK4 it is possible that PAK5 and PAK6 also interact with GEF-H1 or related proteins.

Test [1] concerns the target T2, Glutathione-s-transferase (GST) fused PAK4 (residues 291-591) (human, UniProt O96013 291-591).
T2 construct: Bait of the phage display screen; the paragraphs that tell the kinase results say only PAK4; also called PAK4 kinase; not shown: glutathione-S-transferase (GST), protein product of the SJ26 gene, fusion partner from pGEX-4T
Description: phage display screen, GST-PAK4 (291-591) on glutathione beads, MCF7 cDNA library. The text has this:
The phage display hits isolated in the screen corresponded to in-frame fusions derived from several distinct genes. One fragment was derived from the Maguin-2-like gene. Two other hits were derived from the GEF-H1S splice variant of GEF-H1.
This expression vector allowed production and expression of a gene appropriately inserted, as a fusion protein where the fusion partner is the protein product of the SJ26 gene glutathione-s-transferase (GST). The fusion partner GST allows for affinity immobilization on glutathione sepharose 4B matrix (Amersham Biosciences Cat # 17-0756-01) also known as glutathione beads. The PAK4 polypeptide immobilized to these beads was incubated with a lysate containing phage particles expressing a library of peptides derived from MCF7 (breast carcinoma tissue culture cells available from ATCC, USA) cDNA. See, Zozulya et al., Nat. Biotechnol., 17(12): p. 1193-8, 1999. Upon sequencing many of the candidates obtained in this screen, the GEF-H1S polypeptide was discovered in the clone designated 13-8. Sequencing was performed on a ABI prizm machine using standard methods provided by the manufacturer (Applied Biosystems, USA).

The target of test [2] is T3, amino-terminal regulatory domain of PAK4 alone (amino acids 1-309) (human, UniProt O96013 1-309).
T3 construct: Over-expressed in 293T cells, used as cell lysate
T3 sequence (looked up): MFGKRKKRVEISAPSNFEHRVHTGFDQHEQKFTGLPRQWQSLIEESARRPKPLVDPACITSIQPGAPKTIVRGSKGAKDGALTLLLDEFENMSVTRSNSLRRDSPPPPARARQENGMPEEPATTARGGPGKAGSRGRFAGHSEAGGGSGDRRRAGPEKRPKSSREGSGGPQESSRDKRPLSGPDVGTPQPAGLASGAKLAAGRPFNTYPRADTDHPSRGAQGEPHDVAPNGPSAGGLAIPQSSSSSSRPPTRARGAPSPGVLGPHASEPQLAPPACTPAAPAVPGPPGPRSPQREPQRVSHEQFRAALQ
Description: GST pull-down on glutathione beads from 293T lysate, myc immunoblot. As to the method:
An equivalent amount of beads and excess lysates (500 ug) were used. Eluates of beads and total lysates were analysed by SDS-PAGE and immunoblotted with myc or GEF-H1 antiserum; (c) represents a PAK4 gene schematic outlining the regions of PAK4 used to identify the GEF-H1 interaction domain (GID). d, alignment of the GID defined by the minimal binding region of PAK4 with PAK5 and PAK6.
These fusion proteins were bound to glutathione beads and utilized in binding assays with 293T lysates expressing exogenous PAK4.
The GST immobilized GEF-H1S polypeptide was used to conduct immunoprecipitation from the 293T cell extracts. The resulting protein complexes on the beads were identified by separating on SDS-PAGE followed by Western blotting to identify proteins that are present. The Western blot technique (Renart et al., Methods Enzymol., 104:455-60, 1984) is universally used to identify proteins using specific immunoreagents like antibodies. […] PAK4 was not present after immunoprecipitation with immobilized fusion partner GST. This interaction was limited by the presence or absence of GEF-H1S.
(In general: Immunoblotting shows a protein as a band on a membrane.)

B1: biotinylated PAK4 peptide, amino acids 291-355 (peptide, UniProt O96013 291-355, looked up)
peptide: SPQREPQRVSHEQFRAALQLVVDPGDPRSYLDNFIKIGEGSTGIVCIATVRSSGKLVAVKKMDLR
modifications: biotinylated (position not given)
notes: Linked to streptavidin beads
With B1, the binding result with GFP-GEF-H1 was “no binding”.

B2: GEF-H1S polypeptide of phage display clone 13-8 (amino acids 763-921) (other)
chain: LRESEQARALLEREAEEARRQLAALGQTEPLPAEAPWARRPVDPRRRSLPAGDALYLSFNPPQPSRGTDRLDLPVTTRSVHRNFEDRERQELGSPEERLQDSSDPDTGSEEEGSSRLSPPHSPRGETLAETWTRDFTRMQDIPEETESRDGEAVASES
notes: Two hits came from GEF-H1S; only this one has stated limits; also called phage clone 13.8; GEF-H1 phage display hit; not shown: phage display fusion partner
With B2, the binding result in test [1] is “binds”.

B3: GST-GEF-H1S (aa763-921) (other)
chain: B2 chain
notes: not shown: glutathione-S-transferase (GST), protein product of the SJ26 gene, fusion partner from pGEX-4T
In the case of B3, in test [2], the binding result is given as “no binding”.
